From article PMC5682392, “Site-Directed Mutagenesis Study Revealed Three Important Residues in Hc-DAF-22, a Key Enzyme Regulating Diapause of Haemonchus contortus” (Frontiers in Microbiology, 2017)

B1: Hc-DAF-22 (Haemonchus contortus) (protein)
chain: MGKSKVYVIGVGMTKFCKPGSRDWDYPDMVKEAVNMALDDCSLKYTDIQQATVGYLFGGTCCGQRALYELGFTGIPIFNVNNACASGSSGLYLCKQIIESGNSDVVLACGFEKMATGSLDTQAGNSDGRALSVDNHIQVMSDTYGLFPAPITAQMFANAGKEHMEKYGTKREHFAKIAWKNHLHSVHNPNSQFTKEFSLDQVMNARKIYDFMGLLECSPTSDGSAAAVLCSERFLEQNPRLKPQAVEIVGLELGTDQPSVFKENSNIKMIGFDMIKKISSDLYRNTGLCPNDVQVIELHDCFAPNELITYEALGLCDVGKGGTIVDRGDNTYGGKWVINPSGGSISKGHPIGATGVAQVVELSNQLRGKCGKRQVPNCKIAMQHNIGIGGAGVVGLYRLAYPSSTCPPTTKSSPTMSAFKSDVIFEEIKQRINEEKELVKKIATSFRIIITGEDGTVKKWTIDAKSDTPYVGDDDRKVEVEITIKDSDFMNIAAGKLKADQAFMQGKMKLKGNIAKSMKLKTLLDPKMLKAKI

What was measured:
[1] = tested on: CC(=O)CC(=O)SCCNC(=O)CCNC(=O)[C@H](O)C(C)(C)COP(=O)(O)OP(=O)(O)OC[C@H]1O[C@@H](n2cnc3c(N)ncnc32)[C@H](O)[C@@H]1OP(=O)(O)O; assay: purified protein; format: biochemical, Haemonchus contortus; conditions: 60 μM CoA co-substrate, 20 mM MgCl2, 50 mM Tris-Cl pH 8.1 (pH 8.0 also stated), 37°C, varied substrate not given, taken as AcAc-CoA
[2] = substrate: CC(=O)CC(=O)SCCNC(=O)CCNC(=O)[C@H](O)C(C)(C)COP(=O)(O)OP(=O)(O)OC[C@H]1O[C@@H](n2cnc3c(N)ncnc32)[C@H](O)[C@@H]1OP(=O)(O)O; assay: purified protein; format: biochemical, Haemonchus contortus; conditions: 60 μM CoA co-substrate, 20 mM MgCl2, 50 mM Tris-Cl pH 8.1 (pH 8.0 also stated), 37°C, varied substrate not given, taken as AcAc-CoA, text prints 33.765

Molecule	Km [1] [µM]	Vmax [1] [µM/min]	Km [2] [µM]	Vmax [2] [µM/min]
Hc-DAF-22 (Haemonchus contortus; C84S)	51.25	0.693	–	–
Hc-DAF-22 (Haemonchus contortus; H299A)	79.85	1.39	–	–
Hc-DAF-22 (Haemonchus contortus; H349A)	78.50	0.765	–	–
B1	–	–	33.76	1.78
